This passage reports PBMC activity assay IC50, fold better potency in the OX40L-driven PBMC activity assay against the non-affinity matured counterpart (15B07) and fold better potency in the PBMC activity assay against F-027100179 results from US20220153854A1.

This experiment deals with membrane bound human OX40L on CHO-KI cells (human) (UniProt P23510). Kind of experiment: cell-based or functional assay.
Sequence of membrane bound human OX40L on CHO-KI cells (human) (P23510 whole entry): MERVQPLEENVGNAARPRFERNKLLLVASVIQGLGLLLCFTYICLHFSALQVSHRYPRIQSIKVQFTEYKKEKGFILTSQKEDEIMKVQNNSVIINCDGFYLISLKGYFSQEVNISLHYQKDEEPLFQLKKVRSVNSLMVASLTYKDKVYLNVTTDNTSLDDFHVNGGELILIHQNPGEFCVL

B1: ISVD construct F027100172 (protein, part only; not given: anti-IL-13 building blocks, part only)
chain, part: DVQLVESGGGVVQPGGSLRLSCAASRSIGRYDRMGWYRHRPGEPRELVATITGGSSINYGDSVKGRFTISIDNSKNTVYLQMNSLRPEDTALYYCNFNKYQISRDTWGQGTLVTVSSGGGGSGGGSGGGGSGGGSEVQLVESGGGVVQPGGSLRLSCAASGFTFRSFGMSWVRQAPGKGPEWVSSISGSGSDTLYADSVKGRFTISRDNSKNTLYLQMNSLRPEDTALYYCTIGGSLSRSSQGTLVTVSSGGGGSGGGS
B1 showed a PBMC activity assay IC50 of 2.5 nM, a fold better potency in the OX40L-driven PBMC activity assay against the non-affinity matured counterpart (15B07) of 20 fold and a fold better potency in the PBMC activity assay against F-027100179 of 10 fold.
